Test results: patent US20230331860A1

Key:
Assay in all cases: FcγR binding, SPR (method per paragraph 74)
[1] = target: cyCD64 (cynomolgus monkey)
hCD32b (human) = hCD32b (human) (UniProt P31994)
[2] = target: cyCD16 (cynomolgus monkey) (UniProt Q8SPW2)
hCD16a-F158 (human) = hCD16a-F158 (human) (UniProt P08637)
hCD32a-H131 (human) = hCD32a-H131 (human) (UniProt P12318)
hCD64 (human) = hCD64 (human) (UniProt P12314)
hCD16a-V158 (human) = hCD16a-V158 (human) (UniProt P08637)
[3] = target: cyCD32b (cynomolgus monkey)
hCD32a-R131 (human) = hCD32a-R131 (human) (UniProt P12318)
Chain of hCD32a-R131 (human) (P12318 36-218 H167R limits assumed): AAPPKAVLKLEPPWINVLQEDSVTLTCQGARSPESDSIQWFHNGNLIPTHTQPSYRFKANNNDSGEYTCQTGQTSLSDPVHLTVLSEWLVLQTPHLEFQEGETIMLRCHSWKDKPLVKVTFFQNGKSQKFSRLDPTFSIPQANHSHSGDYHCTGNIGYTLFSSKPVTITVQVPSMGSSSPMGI

[4] = target: cyCD32a (cynomolgus monkey)

Chain of BMS-986325 (antibody) (heavy): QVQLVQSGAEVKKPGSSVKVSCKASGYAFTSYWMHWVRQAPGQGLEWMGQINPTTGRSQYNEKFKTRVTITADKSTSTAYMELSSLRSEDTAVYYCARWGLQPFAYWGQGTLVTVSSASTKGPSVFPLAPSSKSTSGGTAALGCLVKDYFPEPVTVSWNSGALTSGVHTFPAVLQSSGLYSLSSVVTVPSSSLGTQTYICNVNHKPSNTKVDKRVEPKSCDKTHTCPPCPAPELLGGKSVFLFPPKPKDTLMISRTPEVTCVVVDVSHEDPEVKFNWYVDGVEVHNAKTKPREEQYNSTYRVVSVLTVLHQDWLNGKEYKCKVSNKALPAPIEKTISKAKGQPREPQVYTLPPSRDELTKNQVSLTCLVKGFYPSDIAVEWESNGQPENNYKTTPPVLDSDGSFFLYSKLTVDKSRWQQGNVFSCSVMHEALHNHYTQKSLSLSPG
Chain of BMS-986325 (antibody) (light): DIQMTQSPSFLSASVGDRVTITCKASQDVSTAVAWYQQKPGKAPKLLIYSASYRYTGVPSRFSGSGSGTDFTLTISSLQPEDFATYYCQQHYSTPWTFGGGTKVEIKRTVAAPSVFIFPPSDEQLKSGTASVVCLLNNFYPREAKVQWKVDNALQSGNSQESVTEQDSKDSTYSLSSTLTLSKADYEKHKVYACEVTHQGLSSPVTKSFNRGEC
Chain of hCD64 (human) (P12314 16-288 limits assumed): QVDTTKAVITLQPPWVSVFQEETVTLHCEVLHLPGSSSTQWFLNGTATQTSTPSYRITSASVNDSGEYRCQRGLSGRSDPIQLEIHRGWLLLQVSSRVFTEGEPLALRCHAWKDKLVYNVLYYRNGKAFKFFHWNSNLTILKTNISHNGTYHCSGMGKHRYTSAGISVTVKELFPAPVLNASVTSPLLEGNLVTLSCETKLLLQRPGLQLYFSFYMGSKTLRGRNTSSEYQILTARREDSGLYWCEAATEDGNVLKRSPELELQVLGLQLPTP
Chain of hCD16a-V158 (human) (P08637 17-208 F176V limits assumed): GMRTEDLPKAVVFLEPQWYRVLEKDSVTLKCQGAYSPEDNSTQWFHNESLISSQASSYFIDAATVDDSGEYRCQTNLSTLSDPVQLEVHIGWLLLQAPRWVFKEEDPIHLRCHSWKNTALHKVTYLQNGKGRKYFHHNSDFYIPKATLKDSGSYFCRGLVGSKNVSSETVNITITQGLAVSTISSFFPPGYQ
Chain of cyCD16 (cynomolgus monkey) (Q8SPW2 17-208 limits assumed): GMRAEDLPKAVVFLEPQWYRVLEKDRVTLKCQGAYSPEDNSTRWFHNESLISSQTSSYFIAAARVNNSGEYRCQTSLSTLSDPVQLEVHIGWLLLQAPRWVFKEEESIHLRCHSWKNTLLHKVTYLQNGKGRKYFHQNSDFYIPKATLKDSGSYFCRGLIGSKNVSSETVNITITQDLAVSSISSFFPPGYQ
Chain of hCD16a-F158 (human) (P08637 17-208 limits assumed): as the sequence (P08637 17-208 F176V limits assumed) above, with V160F counted along it
Chain of hCD32b (human) (P31994 43-217 limits assumed): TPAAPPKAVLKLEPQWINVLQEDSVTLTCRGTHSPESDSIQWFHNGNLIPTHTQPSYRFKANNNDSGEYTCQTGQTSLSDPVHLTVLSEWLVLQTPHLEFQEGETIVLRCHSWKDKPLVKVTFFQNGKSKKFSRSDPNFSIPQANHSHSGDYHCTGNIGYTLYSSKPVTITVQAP
Chain of hCD32a-H131 (human) (P12318 36-218 limits assumed): as the sequence (P12318 36-218 H167R limits assumed) above, with R132H counted along it

Substance | Kd [1] | fold weaker binding than wild-type human IgG1 control [1] | Kd (hCD32b (human)) | Kd [2] | Kd (hCD16a-F158 (human)) | Kd (hCD32a-H131 (human)) | Kd (hCD64 (human)) | Kd (hCD16a-V158 (human)) | Kd [3] | Kd (hCD32a-R131 (human)) | Kd [4]
BMS-986325 (antibody) | 13 nM | 100 fold |  |  |  |  |  |  |  |  | 
wild-type human IgG1 control (antibody) | < 0.1 nM |  | 3090 nM | 164 nM | 4430 nM | 446 nM | < 0.1 nM | 119 nM | 877 nM | 665 nM | 1520 nM
